Molecular target: HIV Tat transcription factor (HIV)
Assay: cell-based or functional assay

**Q.** Which decrease in Tat driven transactivation of the HIV LTR/TAR luciferase reporter in HeLa cells does the source give for “human TOE1 (Target of Egr1) (from UniProt Q96GM8 1-510)” here?
**A.** 50 to 80%

Reference: US20130065819A1
